Positions of bridges follow the written chain, without caps; N, C: chain ends. Non-standard residues stand in square brackets, D forms with d. NMeW = CN[C@@H](Cc1c[nH]c2ccccc12)C(=O)O; 2Nal = N[C@@H](Cc1ccc2ccccc2c1)C(=O)O; d2Nal = N[C@H](Cc1ccc2ccccc2c1)C(=O)O; d(αMeF) = C[C@@](N)(Cc1ccccc1)C(=O)O; NMeH = CN[C@@H](Cc1c[nH]cn1)C(=O)O; NMeR = CN[C@@H](CCCNC(=N)N)C(=O)O; Cit = NC(=O)NCCC[C@H](N)C(=O)O; NMeA = CN[C@@H](C)C(=O)O; Nle = CCCC[C@H](N)C(=O)O; Aib = CC(C)(N)C(=O)O
B1: CTX-1649 (peptide)
peptide: {CH2CO}-[Aib][Cit][dF]RWC-NH2
modifications: thioether N-6
SMILES: CC1(C)NC(=O)CSC[C@@H](C(N)=O)NC(=O)[C@H](Cc2c[nH]c3ccccc23)NC(=O)[C@H](CCCNC(=N)N)NC(=O)[C@@H](Cc2ccccc2)NC(=O)[C@H](CCCNC(N)=O)NC1=O
B2: CTX-1650 (peptide)
peptide: {CH2CO}-[Aib]H[dF]RFC-NH2
modifications: thioether N-6
SMILES: CC1(C)NC(=O)CSC[C@@H](C(N)=O)NC(=O)[C@H](Cc2ccccc2)NC(=O)[C@H](CCCNC(=N)N)NC(=O)[C@@H](Cc2ccccc2)NC(=O)[C@H](Cc2c[nH]cn2)NC1=O
B3: CTX-1651 (peptide)
peptide: {CH2CO}-[Aib]R[dF]RFC-NH2
modifications: thioether N-6
SMILES: CC1(C)NC(=O)CSC[C@@H](C(N)=O)NC(=O)[C@H](Cc2ccccc2)NC(=O)[C@H](CCCNC(=N)N)NC(=O)[C@@H](Cc2ccccc2)NC(=O)[C@H](CCCNC(=N)N)NC1=O
B4: CTX-1653 (peptide)
peptide: {CH2CO}-GH[dF]RFC-NH2
modifications: thioether N-6
SMILES: N=C(N)NCCC[C@@H]1NC(=O)[C@@H](Cc2ccccc2)NC(=O)[C@H](Cc2c[nH]cn2)NC(=O)CNC(=O)CSC[C@@H](C(N)=O)NC(=O)[C@H](Cc2ccccc2)NC1=O
B5: CTX-1654 (peptide)
peptide: {CH2CO}-GR[dF]RFC-NH2
modifications: thioether N-6
SMILES: N=C(N)NCCC[C@@H]1NC(=O)CNC(=O)CSC[C@@H](C(N)=O)NC(=O)[C@H](Cc2ccccc2)NC(=O)[C@H](CCCNC(=N)N)NC(=O)[C@@H](Cc2ccccc2)NC1=O
B6: CTX-1656 (peptide)
peptide: {CH2CO}-[dA]H[dF]RFC-NH2
modifications: thioether N-6
SMILES: C[C@H]1NC(=O)CSC[C@@H](C(N)=O)NC(=O)[C@H](Cc2ccccc2)NC(=O)[C@H](CCCNC(=N)N)NC(=O)[C@@H](Cc2ccccc2)NC(=O)[C@H](Cc2c[nH]cn2)NC1=O
B7: CTX-1657 (peptide)
peptide: {CH2CO}-[dA]R[dF]RFC-NH2
modifications: thioether N-6
SMILES: C[C@H]1NC(=O)CSC[C@@H](C(N)=O)NC(=O)[C@H](Cc2ccccc2)NC(=O)[C@H](CCCNC(=N)N)NC(=O)[C@@H](Cc2ccccc2)NC(=O)[C@H](CCCNC(=N)N)NC1=O
B8: CTX-2128 (peptide)
peptide: Ac-[Nle]CH[2Nal]R[dW]CRFG-NH2
modifications: disulfide 2-7
SMILES: CCCC[C@H](NC(C)=O)C(=O)N[C@H]1CSSC[C@@H](C(=O)N[C@@H](CCCNC(=N)N)C(=O)N[C@@H](Cc2ccccc2)C(=O)NCC(N)=O)NC(=O)[C@@H](Cc2c[nH]c3ccccc23)NC(=O)[C@H](CCCNC(=N)N)NC(=O)[C@H](Cc2ccc3ccccc3c2)NC(=O)[C@H](Cc2c[nH]cn2)NC1=O
B9: CTX-1263 (peptide)
peptide: Ac-RC[dA]R[dF]R[dW]C-NH2
modifications: disulfide 2-8
SMILES: CC(=O)N[C@@H](CCCNC(=N)N)C(=O)N[C@H]1CSSC[C@@H](C(N)=O)NC(=O)[C@@H](Cc2c[nH]c3ccccc23)NC(=O)[C@H](CCCNC(=N)N)NC(=O)[C@@H](Cc2ccccc2)NC(=O)[C@H](CCCNC(=N)N)NC(=O)[C@@H](C)NC1=O
B10: CTX-1203 (peptide)
peptide: {CH2CO}-[dA][NMeH][dF]R[NMeW]C-NH2
modifications: thioether N-6
SMILES: C[C@H]1NC(=O)CSC[C@@H](C(N)=O)NC(=O)[C@H](Cc2c[nH]c3ccccc23)N(C)C(=O)[C@H](CCCNC(=N)N)NC(=O)[C@@H](Cc2ccccc2)NC(=O)[C@H](Cc2c[nH]cn2)N(C)C1=O
B11: CTX-1265 (peptide)
peptide: Ac-RC[dA]R[dF]R[dF]C-NH2
modifications: disulfide 2-8
SMILES: CC(=O)N[C@@H](CCCNC(=N)N)C(=O)N[C@H]1CSSC[C@@H](C(N)=O)NC(=O)[C@@H](Cc2ccccc2)NC(=O)[C@H](CCCNC(=N)N)NC(=O)[C@@H](Cc2ccccc2)NC(=O)[C@H](CCCNC(=N)N)NC(=O)[C@@H](C)NC1=O
B12: CTX-1267 (peptide)
peptide: Ac-RCAR[dF]RWC-NH2
modifications: disulfide 2-8
SMILES: CC(=O)N[C@@H](CCCNC(=N)N)C(=O)N[C@H]1CSSC[C@@H](C(N)=O)NC(=O)[C@H](Cc2c[nH]c3ccccc23)NC(=O)[C@H](CCCNC(=N)N)NC(=O)[C@@H](Cc2ccccc2)NC(=O)[C@H](CCCNC(=N)N)NC(=O)[C@H](C)NC1=O
B13: CTX-1269 (peptide)
peptide: Ac-RC[NMeA]R[dF]R[dW]C-NH2
modifications: disulfide 2-8
SMILES: CC(=O)N[C@@H](CCCNC(=N)N)C(=O)N[C@H]1CSSC[C@@H](C(N)=O)NC(=O)[C@@H](Cc2c[nH]c3ccccc23)NC(=O)[C@H](CCCNC(=N)N)NC(=O)[C@@H](Cc2ccccc2)NC(=O)[C@H](CCCNC(=N)N)NC(=O)[C@H](C)N(C)C1=O
B14: CTX-1278 (peptide)
peptide: Ac-RC[dA]R[d(αMeF)]RWC-NH2
modifications: disulfide 2-8
SMILES: CC(=O)N[C@@H](CCCNC(=N)N)C(=O)N[C@H]1CSSC[C@@H](C(N)=O)NC(=O)[C@H](Cc2c[nH]c3ccccc23)NC(=O)[C@H](CCCNC(=N)N)NC(=O)[C@@](C)(Cc2ccccc2)NC(=O)[C@H](CCCNC(=N)N)NC(=O)[C@@H](C)NC1=O
B15: CTX-1284 (peptide)
peptide: Ac-RC[dA]R[dF][NMeR][dW]C-NH2
modifications: disulfide 2-8
SMILES: CC(=O)N[C@@H](CCCNC(=N)N)C(=O)N[C@H]1CSSC[C@@H](C(N)=O)NC(=O)[C@@H](Cc2c[nH]c3ccccc23)NC(=O)[C@H](CCCNC(=N)N)N(C)C(=O)[C@@H](Cc2ccccc2)NC(=O)[C@H](CCCNC(=N)N)NC(=O)[C@@H](C)NC1=O

Tests used:
Test in all cases: cell-based or functional assay
human MC3R = human MC3R (human, UniProt P41968 1-323)
human MC4R receptor [1] = target: T1, human MC4R receptor (human, UniProt P32245 1-332)
human MC4R receptor [2] = target: T1, human MC4R receptor; remark: listed apart in the source

Chain of human MC3R (P41968 whole entry): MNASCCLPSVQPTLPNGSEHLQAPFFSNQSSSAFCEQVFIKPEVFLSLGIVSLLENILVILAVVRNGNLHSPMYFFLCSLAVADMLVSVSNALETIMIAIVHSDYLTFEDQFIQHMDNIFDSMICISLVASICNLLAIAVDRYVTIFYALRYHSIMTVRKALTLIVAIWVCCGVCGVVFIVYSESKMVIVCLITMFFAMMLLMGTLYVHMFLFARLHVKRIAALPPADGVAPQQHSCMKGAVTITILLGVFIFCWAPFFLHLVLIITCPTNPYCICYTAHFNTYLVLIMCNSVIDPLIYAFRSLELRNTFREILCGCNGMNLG
T1 sequence (P32245 whole entry): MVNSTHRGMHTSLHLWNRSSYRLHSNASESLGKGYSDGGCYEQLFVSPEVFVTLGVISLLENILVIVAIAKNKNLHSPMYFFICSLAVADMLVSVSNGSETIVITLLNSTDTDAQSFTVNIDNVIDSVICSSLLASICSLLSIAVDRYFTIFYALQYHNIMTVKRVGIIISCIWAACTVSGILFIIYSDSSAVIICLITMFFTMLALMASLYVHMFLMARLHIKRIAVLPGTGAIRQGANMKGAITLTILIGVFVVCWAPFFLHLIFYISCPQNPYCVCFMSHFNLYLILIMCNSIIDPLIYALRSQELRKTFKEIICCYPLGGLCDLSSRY

Binder | % max activation (human MC3R) [%] | cAMP EC50 (human MC3R) [nM] | % max activation (human MC4R receptor [1]) [%] | cAMP EC50 (human MC4R receptor [1]) [nM] | MC4R selectivity vs MC1R (human MC4R receptor [2]) | MC4R selectivity vs MC3R (human MC4R receptor [2])
B1 | 79 | 479 | 97 | 6.6 | 1650 | 72
B2 | 125 | 15200 | 113 | 288 | 0.95 | 53
B3 | – | > 10000 | 92 | 1190 | 1.45 | > 8
B4 | – | > 10000 | 83 | 1220 | 0.83 | > 8
B5 | 43 | 5890 | 81 | 1090 | 0.62 | 5.41
B6 | 86 | 2300 | 98 | 1400 | 1 | 1.64
B7 | 30 | 8810 | 78 | 2470 | 1.42 | 3.56
B8 | 99 | 39 | 87 | 7210 | – | 0.01
B9 | 69 | 11 | 93 | 6.5 | 1.73 | 1.62
Ac-RC[dA]R[dF]R[d2Nal]C-NH2 (disulfide 2-8) [CTX-1264] | 44 | 3.7 | 80 | 13 | 0.14 | 0.29
B10 | 107 | 2610 | 109 | 16 | 2.32 | 161
B11 | – | 29.9 | – | 703 | 0.02 | –
B12 | 40 | 12 | 96 | 3 | 0.5 | 4.07
B13 | 39 | 121 | 92 | 13 | 2.56 | 9.31
Ac-RC[Aib]R[dF][Cit]WC-NH2 (disulfide 2-8) [CTX-1270] | 14 | 52 | 98 | 27 | 2.49 | 1.88
B14 | 86 | 418 | 105 | 36 | 1.13 | 12
Ac-RC[dA]R[dF][Cit][dW]C-NH2 (disulfide 2-8) [CTX-1281] | 44 | 28 | 92 | 97 | 0.44 | 0.29
B15 | 45 | 1040 | 91 | 128 | 0.15 | 8.11
Ac-RC[dA][Cit][dF]R[dW]C-NH2 (disulfide 2-8) [CTX-1286] | 24 | 568 | 91 | 262 | 3.4 | 2.16
Ac-RCA[Cit][dF]RWC-NH2 (disulfide 2-8) [CTX-1287] | 43 | 50 | 94 | 0.77 | 281 | 66
